What was measured:
[1] = target: T1, synthetic polypeptide maFa, N-terminal part of migis-αL (human); test: ELISA on coated synthetic polypeptides, 10 µg/ml
T1 construct: also called the N-terminal polypeptide
T1 peptide: GSCSVADWQMPPPYVVLD
Description: (§1) Anti-migis-α mAbs 8G7 (Igγ2b, κ) and 29C11 (Igγ1, κ) were purified from hybridoma culturing medium by using Protein A Sepharose CL-4B medium (GE Healthcare). Purified mAbs were stored in PBS at the concentration of 1 mg/ml. A mouse anti-human IgA1.Fc mAb 3C10 (Igγ1, Abcam) and mouse total IgG (Sigma-Aldrich) were used as positive and negative controls, respectively. Various migis-α-containing recombinant proteins and several irrelevant proteins were tested in ELISA. Proteins were coated at 1 μg/ml in 0.05M carbonate/bicarbonate buffers in ELISA plates at 4° C. for overnight. Plates were washed with PBST (PBS with 0.05% Tween® 20) and blocked by PBS/BSA (PBS with 1% BSA) at room temperature for 1 h. After washing with PBST, mAbs at 1 μg/ml in PBS/BSA were added into plates and incubated at room temperature for 1 hr. Plates were washed with PBST and then HRP-conjugated goat anti-mouse IgG.Fc antibodies 1:10,000 diluted in PBS/BSA were adding into plates. After incubation at room temperature for 1 hr and washing with PBST, Tetramethylbenzidine substrates (Clinical Scientific Products) were added into plates for colorimetric measurement.
Synthetic migis-αL polypeptides were further used to study binding epitopes of anti-migis-α mAbs by ELISA. […]

[2] = target: T2, mα1.FcS expressed on Ramos cells (human, UniProt P01876 103-398); test: flow cytometry on Ramos/mα1.FcS cells, 1 µg/ml
T2 construct: also called Ramos/mα1.FcS
Description: (§2) For flow cytometric assays in the examples, 3C10 was used as a positive control of detecting mIgA expression and a mouse anti-human mIgE mAb 4B12 (Igγ1, κ) was served as a negative control. To perform the cell staining, 10⁶ cells were washed and incubated with mAbs in 100 μl of staining buffers on ice for 30 min. Cells were subsequently washed with staining buffers and incubated with FITC-labeled rabbit F(ab)′₂ anti-mouse IgG antibodies […] 1:400 diluted in 100 μl staining buffers on ice for 30 min. After washing, cells were resuspended in 400 μl of staining buffers and subjected to flow cytometric analyses in a FACSCanto II (BD Biosciences). […] At the low concentrations (1 μg/ml) staining signals of 29C11 towards these three mIgA-expressing B cells are undetectable.

[3] = target: T3, synthetic polypeptide maF1-2 (human); test: ELISA on coated synthetic polypeptides
T3 peptide: GSCSVADWQMPP
Description: as §1
(§3) Synthetic migis-αL polypeptides were further used to study binding epitopes of anti-migis-α mAbs by ELISA. Polypeptides maFL (SEQ ID NO:9), maFa (SEQ ID NO:10), maFb (SEQ ID NO:11), and maFc (SEQ ID NO:12) are fragments that represent the full length, the N-terminal part, the middle part, and the C-terminal part of migis-αL sequences (FIG. 3A). Polypeptides maF1-2 (SEQ ID NO:13), maF1-3 (SEQ ID NO:14), maF2 (SEQ ID NO:15), and maF2-1 (SEQ ID NO:16) were designed to test shorter sequences for binding activity of anti-migis-α mAbs. Polypeptides at 10 μg/ml were coated in micro-well plates for reacting and ELISA procedures were followed as described above. […] In contrast, 29C11 is capable of binding to both the N-terminal and the middle part of migis-αL sequences, and also reacting to short fragments of the N-terminal polypeptides. (FIGS. 3B-C).

[4] = target: T4, synthetic polypeptide maF1-3 (human); test: ELISA on coated synthetic polypeptides
T4 peptide: CSVADWQMPPPY
Description: as §1, §3

[5] = target: T5, synthetic polypeptide maF2-1 (human); test: ELISA on coated synthetic polypeptides
T5 peptide: DWQMPPPYVVLD
Description: as §1, §3

[6] = target: T6, synthetic polypeptide maF2 (human); test: ELISA on coated synthetic polypeptides
T6 peptide: VADWQMPPPYVV
Description: as §1, §3

[7] = target: T7, mα1.Fc recombinant protein (human, UniProt P01876 103-333); test: ELISA screening of hybridoma culture medium
T7 construct: leader/His tag/linker of the vector as for the other constructs
Description: Fifty microgram of the chimeric protein was used to immunize each Balb/c mouse subcutaneously for 4-5 times in a two-week interval. Three days before cell fusion, ten microgram of the chimeric protein was injected into each mouse intravenously. The splenocytes isolated from immunized mice were fused with mouse myeloma cells FO by using polyethylene glycol 1500 (Roche). After fusion procedures, cells were grown in HAT selection medium for 10-12 days and the cultured medium was transferred for ELISA screening (detailed in the next section). […] Hybridoma clones which produce antibodies reacting to mα1.FcL-LZ and not reacting to mα1.Fc were identified as candidates by using horseradish peroxidase (HRP)-conjugated goat anti-mouse IgG.Fc antibodies (Jackson ImmunoResearch) in ELISA. To further test the binding of hybridoma candidates towards mIgA-expressing B cells, 2×10⁵ DAKIKI cells were incubated with 100 μl of cultured medium on ice for 30 min. Cells were washed with staining buffers [PBS with 2% fetal bovine serum (FBS, Invitrogen) and 0.05% sodium azide] and incubated with FITC-labeled rabbit F(ab)′₂ anti-mouse IgG antibodies (AbD Serotech) 1:400 diluted in staining buffers on ice for 30 min. After washing, cells were resuspended in 200 μl of staining buffer and subjected to flow cytometric analyses. […]

[8] = target: T8, membrane-bound IgA (mIgA) on DAKIKI cells (human, UniProt P01876 1-398); test: flow cytometry on DAKIKI cells, 10 µg/ml against 1 µg/ml
T8 construct: whole, on cells; also called mIgA-expressing B cells
T8 sequence (P01876 whole entry): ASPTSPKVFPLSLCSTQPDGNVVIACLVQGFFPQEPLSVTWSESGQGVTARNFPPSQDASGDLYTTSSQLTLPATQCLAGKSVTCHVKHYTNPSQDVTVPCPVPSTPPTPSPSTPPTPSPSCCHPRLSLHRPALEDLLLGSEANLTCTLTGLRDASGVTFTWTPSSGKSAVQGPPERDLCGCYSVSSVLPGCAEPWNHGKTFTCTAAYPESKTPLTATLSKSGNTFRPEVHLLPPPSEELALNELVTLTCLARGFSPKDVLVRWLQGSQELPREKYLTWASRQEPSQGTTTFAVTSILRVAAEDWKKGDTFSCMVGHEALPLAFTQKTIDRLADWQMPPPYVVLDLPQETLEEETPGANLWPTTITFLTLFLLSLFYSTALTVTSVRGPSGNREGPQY
Description: as §2

[9] = target: T9, mα1.FcL-456S-LZ recombinant protein (human); test: ELISA, serial dilution of mAb on coated mα1.FcL-456S-LZ
T9 construct: also called mα1.FcL-LZ
T9 chain: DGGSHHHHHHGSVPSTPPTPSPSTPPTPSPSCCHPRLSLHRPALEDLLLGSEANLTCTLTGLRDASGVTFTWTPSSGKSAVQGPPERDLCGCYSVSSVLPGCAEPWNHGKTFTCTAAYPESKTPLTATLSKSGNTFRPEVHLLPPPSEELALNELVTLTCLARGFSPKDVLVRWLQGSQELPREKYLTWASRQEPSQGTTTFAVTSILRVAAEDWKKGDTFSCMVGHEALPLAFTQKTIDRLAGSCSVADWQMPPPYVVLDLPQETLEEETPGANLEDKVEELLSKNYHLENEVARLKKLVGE
Description: as §1
The binding curves were analyzed by the software Prism® (GraphPad) and the equation used for calculation was shown below.

[10] = target: mα1.FcL-456C expressed on Ramos cells (human, UniProt P01876 103-398); test: flow cytometry on Ramos/mα1.FcL-456S (so in the source) cells, 1 µg/ml
Description: as §2

binding result [1]: binds | fold of MFI over background against that of 29C11, (MFI8G7-MFIbackground)/(MFI29C11-MFIbackground) [2]: 10.4 fold | binding result [7]: no binding | fold of the increment of MFI (high minus low concentration, over background) against that of 29C11 [8]: 12.5 fold | fold lower concentration at half the maximum binding than 29C11 [9]: ~6 fold | fold of MFI over background against that of 29C11, (MFI8G7-MFIbackground)/(MFI29C11-MFIbackground) [10]: 13.5 fold
B1: anti-migis-α mAb 8G7 (antibody, V domains shown)
VH: EVQLQESGPSLVKPSQTLSLTCSVTGDSITNGYWNWIRKFPGNKLEYMGYISYSGSTYYNPSLKSRIFITRDTSKNQYYLQLNSVTTEDTAIYYCARWLGGRAYWGQGTTLIVSS
VL: DIVMTQSQKFMSTSVGDRVSVTCKASQNVGTNVVWYQQKPGQSPKTLIYSASRRFSGVPDRFTGSGSGTDFTLTISNVQSEDLAEYFCQQYNSYPLTFGAGTKLELK
notes: also called 8G7 mAb
binding result [3]: no binding (tested: 10 µg/ml peptide coated) | binding result [4]: no binding (tested: 10 µg/ml peptide coated) | binding result [5]: no binding (tested: 10 µg/ml peptide coated) | binding result [6]: no binding (tested: 10 µg/ml peptide coated)

Reference: patent publication US20160289339A1 (IMMUNWORK, published 2016)
